Source: patent US8323941B2, “Histone demethylation mediated by the nuclear amine oxidase homolog LSD1” (President and Fellows of Harvard College, priority 2004, dated 2012)

Legend:
LSD1 [1] = molecular target: T1, LSD1 (Homo sapiens, UniProt O60341); experiment: LSD1 demethylation assay on nucleosomal substrates (mononucleosomes), Western blotting; type: biochemical; parameters: Full length (1-851aa) and C-terminal deleted (1-427 aa) human LSD1 cDNAs; 6xHis (N); made in house; host or cells: bacteria
Procedure: Preparation of mononucleosome. Mononucleosome was made according to a standard protocol (Tagami et al., 2004; Utley et al., 1996). Briefly, nuclear pellet from both TSA-treated or non-treated HeLa cells was homogenized for 60 times with type A pestle to obtain oligo-nucleosomes. The oligo-nucleosomes were then digested with micrococcal nuclease (40 units/mL) for 10 mins at 30° C. The nuclease is inactivated by 5 mM EDTA. Digested materials were spun at 14000 rpm for 3 mins. Resulting supernatant was spun again for additional 3 mins at the same speed. Supernatant from the second spin was subject to 10-25% glycerol gradient sedimentation. The monocleosome-containing fractions were identified by examining aliquots of fractions (treated with proteinase K) on DNA agarose gel. An aliquot of TSA-treated or non TSA-treated mononucleosome, a kind gift from Dr. Yoshihiro Nakatani's Lab in Dana Faber Cancer Institute, Harvard Medical School (Tagami et al., 2004), was used here as a control for the quality of mononucleosome made in our lab.
(§1) Demethylation assay. LSD1 demethylation activity on free histone or nucleosomal histone was carried out as previously reported (Shi et al., 2004). Briefly, bulk histones or mononucleosomes were incubated with purified His-LSD1 with or without purified His-CoREST, His-CoREST mutants, His-BHC80 and/or GST-HDAC1 in the histone demethylase activity (HDM) assay buffer (50 mM Tris pH8.5, 50 mM KCl, 5 mM MgCl, 0.5% BSA and 5% glycerol) from 10 mins up to 1 hour at 37° C. The demethylase activity of LSD1 under various conditions was evaluated by Western blotting using K4-H3 methylation-specific antibodies.

LSD1 [2] = molecular target: T1, LSD1; experiment: LSD1 demethylation assay on free (bulk) histones, Western blotting; type: biochemical; parameters: Full length (1-851aa) and C-terminal deleted (1-427 aa) human LSD1 cDNAs; 6xHis (N); made in house; host or cells: bacteria (IPTG induction); conditions: H3-K4 demethylation, recombinant LSD1
Procedure: as §1

effect of added protein on ability of recombinant LSD1 to demethylate nucleosomal substrates (LSD1 [1]; bacterially purified protein added to recombinant LSD1): no effect
Substance: BHC80: PHD domain-containing component of the BRAF35/HDAC2 complex, recombinant
demethylase activity of LSD1/CoREST (LSD1 [1]; increasing amounts of BHC80, nucleosomal substrates): proportional decrease
effect on LSD1 demethylase activity on free histones (LSD1 [2]): significantly dampened
